Test results reported in US20240269276A1 (HARBOUR BIOMED SHANGHAI, published 2024).
Positions count from the first letter of the chain named. Names may count otherwise. Read-outs that look alike come from different tables or passages of the source. Each block holds one binder with its values, some of them ahead of it.

Assays:
[1] = biological target: T1, human CD73 on CHO-K1 cells overexpressing human CD73 (human, UniProt P21589 27-549); assay: flow cytometry on CHO-K1 cells overexpressing human CD73 (CHO-K1-hCD73)
T1 construct: whole, on cells; also called CHO-K1-hCD73
T1 sequence (looked up): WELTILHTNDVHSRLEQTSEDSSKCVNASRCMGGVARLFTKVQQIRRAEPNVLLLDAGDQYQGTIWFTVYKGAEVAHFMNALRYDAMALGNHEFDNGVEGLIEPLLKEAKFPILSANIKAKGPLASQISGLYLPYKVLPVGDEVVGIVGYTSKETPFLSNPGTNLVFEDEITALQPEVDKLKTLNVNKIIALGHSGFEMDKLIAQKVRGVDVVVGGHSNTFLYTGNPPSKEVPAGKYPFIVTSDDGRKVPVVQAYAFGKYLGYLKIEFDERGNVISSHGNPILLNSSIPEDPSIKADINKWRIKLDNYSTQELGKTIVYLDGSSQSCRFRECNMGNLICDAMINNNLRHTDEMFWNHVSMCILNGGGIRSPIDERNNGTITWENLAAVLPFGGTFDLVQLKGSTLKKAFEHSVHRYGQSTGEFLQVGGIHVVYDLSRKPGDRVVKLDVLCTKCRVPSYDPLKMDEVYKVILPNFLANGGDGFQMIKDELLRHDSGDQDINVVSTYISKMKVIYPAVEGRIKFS
Method: (§1) In order to investigate the binding activity of the CD73×PD-L1 bispecific antibody to human CD73 and PD-L1, the binding experiment at the cellular level was performed using CHO-K1 cell strains overexpressing human CD73 or PD-L1 (CHO-K1-hCD73 or CHO-K1-hPD-L1). Briefly, the CHO-K1-hCD73 and CHO-K1-hPD-L1 cells were digested and resuspended in an F-12K complete medium, and the cell density was adjusted to 1×10⁶ cells/mL. The cells were seeded in a 96-well V-bottom plate (Corning, #3894) at 100 μL/well, followed by the addition at 100 μL/well and centrifugation at 500 g at 4° C. for 5 min, and then the supernatant was discarded. Antibodies were 3-fold diluted to a maximum final concentration of 50 nM, and a total of 8 concentrations were set. 100 μL of the diluted antibodies was added to the cells, and the cells were incubated away from light at 4° C for 1 h. Thereafter, the cells in each well were rinsed twice with 100 μL of pre-cooled PBS, and centrifuged at 500 g at 4° C. for 5 min, and then the supernatant was discarded. Then 100 μL of a fluorescent secondary antibody (goat anti-human IgG (H+L) secondary antibody, Alexa Fluor® 488 conjugate, Invitrogen, #A11013, diluted at the ratio of 1:1000) was added to each well. The plate was incubated away from light at 4° C. for 30 min. The cells in each well were then rinsed twice with 200 μL of pre-cooled PBS and centrifuged at 500 g at 4° C. for 5 min, and then the supernatant was discarded. Finally, the cells in each well were resuspended in 200 μL of pre-cooled PBS, and the fluorescence signal values were read using a BD FACS CANTOII.

[2] = biological target: T2, human PD-L1 on CHO-K1 cells overexpressing human PD-L1 (human, UniProt Q9NZQ7 19-290); assay: flow cytometry on CHO-K1 cells overexpressing human PD-L1 (CHO-K1-hPD-L1) [continued) E]
T2 construct: whole, on cells; also called CHO-K1/hPD-L1; CHO-K1-hPD-L1
T2 sequence (Q9NZQ7 19-290): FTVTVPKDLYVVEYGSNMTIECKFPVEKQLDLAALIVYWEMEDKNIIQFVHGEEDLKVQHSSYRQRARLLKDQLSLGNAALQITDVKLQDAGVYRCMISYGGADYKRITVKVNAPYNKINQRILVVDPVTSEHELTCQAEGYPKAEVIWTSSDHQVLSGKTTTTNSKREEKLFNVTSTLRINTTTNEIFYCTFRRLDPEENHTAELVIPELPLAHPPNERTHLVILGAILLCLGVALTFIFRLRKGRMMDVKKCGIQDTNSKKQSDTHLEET
Method: as §1, with “The plate was incubated away from light at 4° C. for 30 min. The cells in each well were then rinsed twice with 200 μL of pre-cooled PBS and centrifuged at 500 g at 4° C. for 5 min, and then the supernatant was discarded.” left out

[3] = biological target: T2, human PD-L1 on CHO-K1 cells …; assay: flow cytometry on CHO-K1 cells overexpressing human PD-L1 (CHO-K1-hPD-L1) [continued) F]
Method: as §1, with “The plate was incubated away from light at 4° C. for 30 min. The cells in each well were then rinsed twice with 200 μL of pre-cooled PBS and centrifuged at 500 g at 4° C. for 5 min, and then the supernatant was discarded.” left out

[4] = biological target: T2, human PD-L1 on CHO-K1 cells …; assay: flow cytometry on CHO-K1 cells overexpressing human PD-L1 (CHO-K1/hPD-L1)
Method: (§2) In the example, in order to study the in vitro binding activity of the PD-L1 antigen-binding protein to human/cynomolgus monkey PD-L1, cell-level binding experiments were performed using CHO-K1 cell strains overexpressing human PD-L1 (CHO-K1/hPD-L1, GenScript, M00543) or CHO-K1 cell strains overexpressing cynomolgus monkey PD-L1 (CHO-K1/cynoPD-L1, GenScript, M00573). Briefly, the PD-L1 cells were digested and resuspended in an F-12K complete medium, and the cell density was adjusted to 1×10⁶ cells/mL. The cells were seeded in a 96-well V-bottom plate (Corning, 3894) at 100 μL/well, followed by the addition of the test antigen-binding proteins serially diluted 5-fold with concentrations that were twice the final concentrations at 100 μL/well. The mixtures were well mixed. The highest final concentration of the antigen-binding proteins was 100 nM. A total of 8 concentrations were set. An isotype antibody hIgG1 iso was used as a control. The cells were incubated away from light at 4° C. for 1 h. Thereafter, the cells in each well were rinsed twice with 100 μL of pre-cooled PBS, and centrifuged at 500 g at 4° C. for 5 min, and then the supernatant was discarded. Then 100 μL of a fluorescent secondary antibody (goat anti-human IgG (H+L) secondary antibody, Alexa Fluor 488 conjugate, Invitrogen, A11013, diluted at the ratio of 1:1000) was added to each well. The plate was incubated away from light at 4° C. for 30 min. The cells in each well were then rinsed twice with 200 μL of pre-cooled PBS and centrifuged at 500 g at 4° C. for 5 min, and then the supernatant was discarded. Finally, a pre-cooled PBS was added at 200 μL/well to resuspend the cells. Fluorescence signal values were read using a BD FACS CANTOII. Fluorescence signal values were read using a flow cytometer BD FACS CANTOII or FACS ACEA, and the data were processed and analyzed using FlowJo v10 (FlowJo, LLC) software. The data were processed and analyzed by plotting using GraphPad Prism 8 software, and binding curves, EC50 values and other parameters were acquired through four-parameter nonlinear fitting.

[5] = biological target: T2, human PD-L1 on CHO-K1 cells …; assay: flow cytometry on CHO-K1 cells overexpressing human PD-L1 (CHO-K1/hPD-L1) [continued) D]
Method: as §2

[6] = biological target: T2, human PD-L1 on CHO-K1 cells …; assay: flow cytometry on CHO-K1 cells overexpressing human PD-L1 (CHO-K1/hPD-L1) [continued) E]
Method: as §2

[7] = biological target: T2, human PD-L1 on CHO-K1 cells …; assay: flow cytometry on CHO-K1 cells overexpressing human PD-L1 (CHO-K1/hPD-L1) [continued) F]
Method: as §2

[8] = biological target: T3, human PD-L1 protein with histidine tag (ACROBiosystems #PD-1-H5258) (human, UniProt Q9NZQ7 19-238); assay: BLI (Octet Red96e); His-tagged human PD-L1 captured on HIS1K sensor, antibody at 60 nM; 1:1 fit
T3 construct: Bought protein; also called His PD-L1; human PD-L1 proteins; not shown: histidine tag
T3 sequence (Q9NZQ7 19-238 limits assumed): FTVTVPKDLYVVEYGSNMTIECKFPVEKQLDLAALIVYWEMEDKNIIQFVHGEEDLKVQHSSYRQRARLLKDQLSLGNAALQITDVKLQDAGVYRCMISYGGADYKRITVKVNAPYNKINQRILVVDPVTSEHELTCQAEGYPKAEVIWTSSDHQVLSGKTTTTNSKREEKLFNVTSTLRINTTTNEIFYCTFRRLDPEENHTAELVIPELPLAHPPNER
Method: In this example, affinity determination was performed on the affinity-matured mutants of PR002082 using an Octet Red96e instrument. […] The binding kinetics between the antigen and the antibody was analyzed by the biolayer interferometry (BLI) technique using an Octet molecular interaction analyzer (ForteBio, model: Octet Red96e).
When the affinity of the antigen for the antibody was determined, the rotation speed of the sensor was set at 1000 rpm/min. The 2 HIS1K sensors placed in a column were first equilibrated for 10 min in test buffer, then His PD-L1 was captured with the HIS1K sensor at a capture height of 0.9-1.1 nm, then the HIS1K sensor was equilibrated for 2 min in the test buffer, then the HIS1K sensor was bound to the antigen-binding protein (60 nM and 0 nM) for 3 min, and finally the mixture was dissociated for 15 min. The HIS1K sensor was immersed in a 10 mM glycine solution (pH 1.5) for regeneration to elute the proteins bound to the sensor.
When data analysis was performed using Octet Data Analysis software (Fortebio, version 11.0), the reference signals were subtracted by a single reference mode (reference well), the data were fitted by a “1:1 Local/full fitting” method, and the kinetic parameters of the binding of the antigen to the antibody were calculated to obtain Kₒₙ (1/Ms) values, Kdis (1/s) values and KD (M) values.

[9] = biological target: T4, cynomolgus monkey PD-L1 on CHO-K1 cells overexpressing cynomolgus monkey PD-L1 (cynomolgus monkey, UniProt G7PSE7 19-290); assay: flow cytometry on CHO-K1 cells overexpressing cynomolgus monkey PD-L1 (CHO-K1/cynoPD-L1)
T4 construct: also called CHO-K1/cynoPD-L1; GenScript M00573
T4 sequence (G7PSE7 entry or part of it limits assumed): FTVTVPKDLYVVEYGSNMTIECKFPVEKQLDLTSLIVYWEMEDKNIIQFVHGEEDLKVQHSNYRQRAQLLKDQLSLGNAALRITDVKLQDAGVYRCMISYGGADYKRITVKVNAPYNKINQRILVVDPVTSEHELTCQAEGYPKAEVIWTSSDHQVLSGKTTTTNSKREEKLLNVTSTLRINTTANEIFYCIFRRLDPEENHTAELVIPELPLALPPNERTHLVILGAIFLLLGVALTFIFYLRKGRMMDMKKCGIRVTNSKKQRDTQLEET
Method: as §2

[10] = biological target: T4, cynomolgus monkey PD-L1 on CHO-K1 cells …; assay: as above; remark: listed apart in the source
Method: as §2

[11] = biological target: T4, cynomolgus monkey PD-L1 on CHO-K1 cells …; assay: flow cytometry on CHO-K1/cynoPD-L1 cells
Method: as §2

EC50 [1]: 0.99 nM | EC50 [2]: 1.66 nM
B1: PR003739 (bispecific antibody, human IgG1, kappa, L234A L235A)
heavy: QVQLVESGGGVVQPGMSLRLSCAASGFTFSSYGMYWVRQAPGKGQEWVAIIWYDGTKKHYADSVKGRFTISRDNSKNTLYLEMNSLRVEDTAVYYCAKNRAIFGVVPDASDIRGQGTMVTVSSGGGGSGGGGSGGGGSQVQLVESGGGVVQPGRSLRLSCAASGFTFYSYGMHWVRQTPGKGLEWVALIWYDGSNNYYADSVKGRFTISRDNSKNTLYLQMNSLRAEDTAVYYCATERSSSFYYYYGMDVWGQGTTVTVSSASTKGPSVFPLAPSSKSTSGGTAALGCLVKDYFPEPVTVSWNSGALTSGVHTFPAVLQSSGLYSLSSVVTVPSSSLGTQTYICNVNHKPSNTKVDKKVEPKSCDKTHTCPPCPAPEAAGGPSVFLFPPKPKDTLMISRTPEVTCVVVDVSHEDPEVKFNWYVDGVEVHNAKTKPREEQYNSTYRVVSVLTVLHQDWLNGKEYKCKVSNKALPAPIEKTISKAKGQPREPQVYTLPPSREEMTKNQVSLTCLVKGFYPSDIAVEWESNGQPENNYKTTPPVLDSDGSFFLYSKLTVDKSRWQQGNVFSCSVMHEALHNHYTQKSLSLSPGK
light: DIQLTQSPSFLSTSVGDRVTITCRASQGISSYLAWYQQKPGKAPKLLIYAASTLQSGVPSRFSGSGSGTEFTLTISSLQPEDFATYYCQQLNSYPYTFGQGTELEIKRTVAAPSVFIFPPSDEQLKSGTASVVCLLNNFYPREAKVQWKVDNALQSGNSQESVTEQDSKDSTYSLSSTLTLSKADYEKHKVYACEVTHQGLSSPVTKSFNRGEC
notes: light chain of PR001408; also called CD73×PD-L1 bispecific antibody PR003739

EC50 [1]: 2.09 nM | EC50 [3]: 2.17 nM
B2: PR004295 (bispecific antibody, human IgG1, kappa, L234A L235A)
heavy: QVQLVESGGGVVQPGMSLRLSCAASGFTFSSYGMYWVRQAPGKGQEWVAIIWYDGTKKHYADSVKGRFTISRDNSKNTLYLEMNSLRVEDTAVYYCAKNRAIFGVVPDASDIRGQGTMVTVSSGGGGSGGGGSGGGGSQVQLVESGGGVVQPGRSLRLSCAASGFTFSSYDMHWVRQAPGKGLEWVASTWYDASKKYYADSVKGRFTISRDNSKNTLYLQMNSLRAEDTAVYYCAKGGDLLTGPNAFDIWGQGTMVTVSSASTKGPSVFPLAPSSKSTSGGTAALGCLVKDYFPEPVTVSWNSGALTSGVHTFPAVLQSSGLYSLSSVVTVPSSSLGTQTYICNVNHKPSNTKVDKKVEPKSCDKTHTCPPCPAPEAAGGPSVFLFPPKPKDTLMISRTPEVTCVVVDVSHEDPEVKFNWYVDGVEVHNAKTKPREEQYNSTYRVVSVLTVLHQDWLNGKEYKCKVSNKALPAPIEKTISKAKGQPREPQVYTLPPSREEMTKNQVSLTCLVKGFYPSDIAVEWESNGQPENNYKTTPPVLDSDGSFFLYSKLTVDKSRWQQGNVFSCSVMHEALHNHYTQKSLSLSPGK
light: DIQMTQSPSTLSASVGDRVTITCRASQSISSWLAWYQQKPGKAPKLLIYKASSLESGVPSRFSGSGSGTEFTLTISSLQPDDFATYYCQQYDNYENTFGQGTKLEIKRTVAAPSVFIFPPSDEQLKSGTASVVCLLNNFYPREAKVQWKVDNALQSGNSQESVTEQDSKDSTYSLSSTLTLSKADYEKHKVYACEVTHQGLSSPVTKSFNRGEC
notes: light chain of PR003836; also called CD73×PD-L1 bispecific antibody PR004295

EC50 [4]: 0.86 nM | Maximum MFI [4]: 24500 MFI | EC50 [5]: 1.23 nM | Maximum MFI [5]: 387000 MFI | EC50 [6]: 1.24 nM | Maximum MFI [6]: 381000 MFI | EC50 [7]: 1.31 nM | Maximum MFI [7]: 430000 MFI | Kd [8]: 5.61 nM | koff [8]: 0.00118 s⁻¹ | kon [8]: 210000 M⁻¹ s⁻¹ | EC50 [9]: 0.386 nM | EC50 [10]: 1.52 nM | Maximum MFI [10]: 12100 MFI | EC50 [2]: 1.17 nM | EC50 [3]: 2.93 nM
B3: PR002082 (antibody, human IgG1, V domains shown)
VH: QVQLVESGGGVVQPGMSLRLSCAASGFTFSSYGMYWVRQAPGKGQEWVAIIWYDGTKKHYADSVKGRFTISRDNSKNTLYLEMNSLRVEDTAVYYCAKNRAIFGVVPDASDIRGQGTMVTVSS
notes: HCAb; also called PTM variant of PR000960 (N28T, N31S)

binding result [11]: binds | EC50 [6]: 1.06 nM | Maximum MFI [6]: 393000 MFI | Kd [8]: 1.92 nM | koff [8]: 0.000386 s⁻¹ | kon [8]: 201000 M⁻¹ s⁻¹
B4: PR005868 (antibody, human IgG1, V domains shown)
VH: B3 VH with I102L, V106I
notes: The HC entry is used

binding result [11]: binds | EC50 [7]: 1.01 nM | Maximum MFI [7]: 410000 MFI | Kd [8]: 1.18 nM | koff [8]: 0.000219 s⁻¹ | kon [8]: 185000 M⁻¹ s⁻¹
B5: PR006247 (antibody, human IgG1, V domains shown)
VH: B3 VH with T28D, I50S, W52R, D54T, K57E, I102L, V106I
notes: The HC entry is used

binding result [11]: binds | EC50 [7]: 0.964 nM | Maximum MFI [7]: 405000 MFI | Kd [8]: 1.09 nM | koff [8]: 0.000162 s⁻¹ | kon [8]: 149000 M⁻¹ s⁻¹
B6: PR006245 (antibody, human IgG1, V domains shown)
VH: B3 VH with T28D, I50S, W52R, D54T, K57E
notes: The HC entry is used

binding result [11]: binds | EC50 [6]: 1.13 nM | Maximum MFI [6]: 393000 MFI | Kd [8]: 1.09 nM | koff [8]: 0.000262 s⁻¹ | kon [8]: 241000 M⁻¹ s⁻¹
B7: PR005869 (antibody, human IgG1, V domains shown)
VH: B3 VH with I102L, V106I, A109D
notes: The HC entry is used

binding result [11]: binds | EC50 [6]: 1.14 nM | Maximum MFI [6]: 388000 MFI | Kd [8]: 1.85 nM | koff [8]: 0.000468 s⁻¹ | kon [8]: 253000 M⁻¹ s⁻¹
B8: PR005867 (antibody, human IgG1, V domains shown)
VH: B3 VH with V106I, A109D
notes: The HC entry is used
